Experiment [1] has as its target T1, Gal-CBP280-460 chimera (yeast, UniProt P04386 1-147; P45481 280-460).
T1 construct: range 1-147;range 280-460; also called pGal-CBP280-460; Gal-CBPP280-460
As to the kind of experiment: mammalian two-hybrid assay in HeLa cells.

Experiment [2] deals with T1, Gal-CBP280-460 chimera. As to the kind of experiment: cell-based or functional assay.
The next experiment deals with Gal-CBP227-460 chimera (yeast, UniProt P04386 1-147; P45481 227-460). As to the kind of experiment: cell-based or functional assay.

B1: VP16 activation domain (other)
chain: MTAPPTDVSLGDELHLDGEDVAMAHADALDDFDLDMLGDGDSPGPGFTPHDSAPYGALDMADFEFEQMFTDALGIDEYGG
notes: range 412-491; Control without the clone 11 part; also called pVP16
As to B1, in the experiment with Gal-CBP280-460 chimera [1], the binding result is given as “no binding”.

B2: VP16-clone 11 chimera (other)
chain: MTAPPTDVSLGDELHLDGEDVAMAHADALDDFDLDMLGDGDSPGPGFTPHDSAPYGALDMADFEFEQMFTDALGIDEYGGGTSLASASPVPAPTPVLAPSSTQTMLPAPVPSPLPSPASTQTLALAPALAPTLGGSSPSQTLSLGTGNPQGPFPTQTLSLTPASSLVPTPAQTLSLAPGPPLGPTQTLSLAPAPPLAPASPVGPAPAHTLTLAPASSSASLLAPASVQTLTLSPAPVPTLGPAAAQTLALAPASTQSPASQASSLVVSASGAAPLPVTMVSRLPVSKDEPDTLTLRSGPPSPPSTATSFGGPRPRRQPPPPPRSPFYLDSLEEKRKRQRSERLERIFQLSEAHGALAPVYGTEVLDFCTLPQPVASPIGPRSPGPSHPTFWTYTEAAHRA
As to B2, the “transcription of the reporter gene pGal-CAT (relative CAT activity)” value with Gal-CBP280-460 chimera [2] was roughly 20 fold. Besides, the “ability of the Gal-CBP227-460 chimera to activate transcription of the reporter gene pGal-CAT” value with Gal-CBP227-460 chimera was roughly 1.5 fold.

For the origin of these results see patent publication US6365372 (SAINT LOUIS UNIVERSITY, dated 2002).
